The Ki is the dissociation constant of the complex between target and ligand, obtained from inhibition or displacement. A higher Ki goes with weaker binding. Usually Km stands for the substrate concentration at which the rate is half of its maximum.

In series [1] the target is T1, CcDHAD (dihydroxyacid dehydratase) (Caulobacter vibrioides, UniProt Q9A9Z2).
T1 construct: gene xylD; codon-optimised gene in pET28a, recombinant in E. coli BL21(DE3), purified on His GraviTrap; MnCl2 added before freezing
T1 sequence (Q9A9Z2 1-595): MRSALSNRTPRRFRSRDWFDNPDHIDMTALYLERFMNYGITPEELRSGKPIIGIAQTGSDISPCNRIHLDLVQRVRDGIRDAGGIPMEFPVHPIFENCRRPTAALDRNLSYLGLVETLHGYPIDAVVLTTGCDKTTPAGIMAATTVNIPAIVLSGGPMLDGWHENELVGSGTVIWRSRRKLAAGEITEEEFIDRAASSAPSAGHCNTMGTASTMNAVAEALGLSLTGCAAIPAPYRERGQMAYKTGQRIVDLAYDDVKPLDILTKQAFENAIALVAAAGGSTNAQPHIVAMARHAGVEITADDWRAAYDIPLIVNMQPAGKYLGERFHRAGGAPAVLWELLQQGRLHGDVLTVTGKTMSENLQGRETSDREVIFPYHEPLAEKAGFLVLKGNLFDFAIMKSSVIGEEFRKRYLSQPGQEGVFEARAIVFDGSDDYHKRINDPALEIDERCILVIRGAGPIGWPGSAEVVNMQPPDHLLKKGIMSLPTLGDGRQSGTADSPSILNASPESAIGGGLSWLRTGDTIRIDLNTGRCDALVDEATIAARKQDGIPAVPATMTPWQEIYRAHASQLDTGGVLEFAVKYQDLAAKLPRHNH
As to the kind of experiment: inhibition of D-gluconate dehydration (experimental analysis in Figure S2). It counts as biochemical.

Substrate in series [2]: O=C[C@H](O)CO
In words: purified protein. The conditions noted are these: substrate not named in table (D-glyceraldehyde from the cascade), cofactor NAD, 50 °C, 100 mM HEPES pH 7.35, 100 mM ammonium sulfate.

Substrate in series [3]: NC(=O)c1ccc[n+]([C@@H]2O[C@H](COP(=O)(O)OP(=O)(O)OC[C@H]3O[C@@H](n4cnc5c(N)ncnc54)[C@H](O)[C@@H]3O)[C@@H](O)[C@H]2O)c1
As to the kind of experiment: purified protein. Format: biochemical, Methanocaldococcus jannaschii. The conditions noted are these: 50 °C, 100 mM HEPES pH 7.35, 100 mM ammonium sulfate, varied: cofactor.

Substrate in series [4]: CC(=O)C(=O)O
In words: purified protein. It counts as biochemical, Archaeoglobus fulgidus. As to conditions: 0.1-1 mM pyruvate, 0.2 mM NADH, 100 mM (NH4)2SO4, 50 °C, 100 mM HEPES pH 7.35.

Substrate in series [5]: NC(=O)C1=CN([C@@H]2O[C@H](COP(=O)(O)OP(=O)(O)OC[C@H]3O[C@@H](n4cnc5c(N)ncnc54)[C@H](O)[C@@H]3O)[C@@H](O)[C@H]2O)C=CC1
In words: purified protein. It counts as biochemical, Archaeoglobus fulgidus. The conditions noted are these: 0.005-0.3 mM NADH, 1 mM pyruvate, 100 mM (NH4)2SO4, 50 °C, 100 mM HEPES pH 7.35, varied: cofactor.

Substrate in series [6]: O=C(O)C(=O)C[C@H](O)[C@H](O)CO
As to the kind of experiment: purified protein. It counts as biochemical, Picrophilus oshimae. The conditions noted are these: 0.03-3 mM KDG, 1 mM NAD, 50 °C, 100 mM HEPES pH 7.35, 100 mM ammonium sulfate.

Substrate in series [7]: O=C(O)[C@H](O)[C@@H](O)[C@H](O)[C@H](O)CO
As to the kind of experiment: purified protein. Format: biochemical, Caulobacter vibrioides. The conditions noted are these: 0.2-20 mM D-gluconate, 1 mM NAD, 50 °C, 100 mM HEPES pH 7.35, 100 mM ammonium sulfate, enzyme stored with MnCl2.

As to `O=C(O)[C@H](O)CO` [D-glycerate], the Ki in series [1] was ~500 µM.

B1: MjALDH (aldehyde dehydrogenase) (Methanocaldococcus jannaschii DSM 2661) (protein)
chain: MFIDGKWINREDMDVINPYSLEVIKKIPALSREEAKEAIDTAEKYKEVMKNLPITKRYNILMNIAKQIKEKKEELAKILAIDAGKPIKQARVEVERSIGTFKLAAFYVKEHRDEVIPSDDRLIFTRREPVGIVGAITPFNFPLNLSAHKIAPAIATGNVIVHHPSSKAPLVCIELAKIIENALKKYNVPLGVYNLLTGAGEVVGDEIVVNEKVNMISFTGSSKVGELITKKAGFKKIALELGGVNPNIVLKDADLNKAVNALIKGSFIYAGQVCISVGMILVDESIADKFIEMFVNKAKVLNVGNPLDEKTDVGPLISVEHAEWVEKVVEKAIDEGGKLLLGGKRDKALFYPTILEVDRDNILCKTETFAPVIPIIRTNEEEMIDIANSTEYGLHSAIFTNDINKSLKFAENLEFGGVVINDSSLFRQDNMPFGGVKKSGLGREGVKYAMEEMSNIKTIIISK
notes: codon-optimised gene in pET28a (NcoI/XhoI), recombinant in E. coli BL21(DE3), purified by heat treatment (70 °C) and desalting
Consider B1, for which the Michaelis constant (Km) in the series “purified protein [2]” and in “purified protein [3]” was 300 µM each time.

B2: AfAlaDH (L-alanine dehydrogenase) (Archaeoglobus fulgidus DSM 4304) (protein)
chain: METLILTQEEVESLISMDEAMNAVEEAFRLYALGKAQMPPKVYLEFEKGDLRAMPAHLMGYAGLKWVNSHPGNPDKGLPTVMALMILNSPETGFPLAVMDATYTTSLRTGAAGGIAAKYLARKNSSVFGFIGCGTQAYFQLEALRRVFDIGEVKAYDVREKAAKKFVSYCEDRGISASVQPAEEASRCDVLVTTTPSRKPVVKAEWVEEGTHINAIGADGPGKQELDVEILKKAKIVVDDLEQAKHGGEINVAVSKGVIGVEDVHATIGEVIAGLKDGRESDEEITIFDSTGLAIQDVAVAKVVYENALSKNVGSKIKFFRI
notes: codon-optimised gene in pET24a, recombinant in E. coli BL21(DE3), purified by heat treatment (70 °C) and desalting
Turning to B2, the Michaelis constant (Km) in “purified protein [4]” was 200 µM; in “purified protein [5]”, 60 µM.

B3: PtKDGA (2-keto-3-deoxygluconate aldolase) (Picrophilus oshimae DSM 9789) (protein)
chain: MITPLDAHGNIDYNATNILIKYLEGINVDYLFPMGSTGVFPYFTLKERKDFLKFVRENSKKPIMAGVGSSSINEVNELMKFSMDIGIEAAVLMPPYYIKLNQEAIYHYYKEILSSNDMDLLIYNIPQFTNKIDPETVKNLKSEFSSVKGVKDSSADIRGFMEMLSLSDDDFAVFQGQDDLLFTSLELGASGGVCGTTNFSDGIVRLYHEYKNNREMALKIEKNDVIPLMKKLGKYQFPNAYYEYFYKKNNINGGYRPPMYRVGIEI
notes: codon-optimised gene in pET28a, recombinant in E. coli BL21(DE3), heat treated (65 °C) and purified on His GraviTrap
With B3, the Km in the series “purified protein [6]” was 1100 µM.

B4: CcDHAD (dihydroxyacid dehydratase) (Caulobacter vibrioides CB15) (protein)
chain: MRSALSNRTPRRFRSRDWFDNPDHIDMTALYLERFMNYGITPEELRSGKPIIGIAQTGSDISPCNRIHLDLVQRVRDGIRDAGGIPMEFPVHPIFENCRRPTAALDRNLSYLGLVETLHGYPIDAVVLTTGCDKTTPAGIMAATTVNIPAIVLSGGPMLDGWHENELVGSGTVIWRSRRKLAAGEITEEEFIDRAASSAPSAGHCNTMGTASTMNAVAEALGLSLTGCAAIPAPYRERGQMAYKTGQRIVDLAYDDVKPLDILTKQAFENAIALVAAAGGSTNAQPHIVAMARHAGVEITADDWRAAYDIPLIVNMQPAGKYLGERFHRAGGAPAVLWELLQQGRLHGDVLTVTGKTMSENLQGRETSDREVIFPYHEPLAEKAGFLVLKGNLFDFAIMKSSVIGEEFRKRYLSQPGQEGVFEARAIVFDGSDDYHKRINDPALEIDERCILVIRGAGPIGWPGSAEVVNMQPPDHLLKKGIMSLPTLGDGRQSGTADSPSILNASPESAIGGGLSWLRTGDTIRIDLNTGRCDALVDEATIAARKQDGIPAVPATMTPWQEIYRAHASQLDTGGVLEFAVKYQDLAAKLPRHNH
notes: codon-optimised gene in pET28a, recombinant in E. coli BL21(DE3), purified on His GraviTrap; MnCl2 added before freezing
For B4, the Km in the series “purified protein [7]” came out at 3200 µM.

The record behind these values is publication PMC6692406, “Optimization of a reduced enzymatic reaction cascade for the production of L-alanine” (Scientific Reports, 2019).
